The nature of this data set: amyloid nucleation score (Sup35N fusion, yeast selection) (log enrichment); library NNK2; higher = more nucleation; inactive = no reads after selection. The method, boiled down: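 Three technical output replicates were used for random libraries. Psi-negative yeast expressing peptides of 20 random codons fused to Sup35N were induced with 100 μM copper sulfate for 24 hours and grown 7 days at 30°C on medium lacking adenine and uracil, and input and output plasmid inserts were Illumina-sequenced, excluding sequences with under 100 input reads. The nucleation score is the DiMSum log enrichment of output over input reads, centred on the mode score of non-aggregating sequences.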

± gives the uncertainty stated by the source.

EMWSISIKISGR showed an amyloid nucleation score of 0.763 ± 0.57.

As for TLDNIRFKLQTAGTAIMWRR, the amyloid nucleation score amounted to 0.311 ± 0.24.

On to TGRISVSG, for which the amyloid nucleation score worked out at 0.14 ± 1.

In the case of GSYTHARINSVIFNRYTLCS, the amyloid nucleation score is 0.219 ± 1.

Regarding HVISTSW, the amyloid nucleation score entry was “inactive”.

LLHGSLWAQSMSLCWLNVTG had an amyloid nucleation score of 4.24 ± 0.088.

Regarding AFMSYTSSSRYPVCYLSKFH, the amyloid nucleation score is -0.74 ± 1.1.

Turning to KFWDLC, the amyloid nucleation score was determined as 0.047 ± 0.45.

As to LPMLRHTYNCFSVACIGIFC, the amyloid nucleation score is -0.204 ± 0.3.

Substance SCQFWSTFCTSC came in with an amyloid nucleation score of 0.378 ± 0.74.

Turning to NNNGV, the amyloid nucleation score came to 1.45 ± 0.13.

IREGLFRVTIDYSSMLCSGR registered an amyloid nucleation score of 3.01 ± 0.12.

With FSGFNR, the amyloid nucleation score entry is “inactive”.

On to VFFGPTFCFVPYVNMRCLVP, for which the amyloid nucleation score was determined as 8.082 ± 0.059.

Substance YDNMC returned an amyloid nucleation score of -0.72 ± 0.35.

RFVVSEGLIGVVGSSKLILY registered an amyloid nucleation score of 0.106 ± 1.

In turn, VHTAFRETLYRRDKMLCGMR displayed an amyloid nucleation score of -0.709 ± 0.63.

The substance SPLCVF registered an amyloid nucleation score of -0.211 ± 0.38.

As to ALNPVCL, the amyloid nucleation score amounted to 0.623 ± 0.62.

Consider CMLDA, for which the amyloid nucleation score is -0.555 ± 0.76.

In turn, KTCSACVSIKICLLNDGGNW came in with an amyloid nucleation score of 9.63 ± 0.052.

HLHPGVYLKPFDGCGIINGI had an amyloid nucleation score of 0.213 ± 0.8.

As for YGSESVGGSQRSGNLSWGTG, the amyloid nucleation score is 0.257 ± 0.64.

Take LNHIYYLAIQTTACILTMGE: the amyloid nucleation score was -1.07 ± 0.63.

As for GLGSPLHIWNIFVRRWYHRY, the amyloid nucleation score entry was “inactive”.

Substance SYFDMWIGW displayed an amyloid nucleation score of 1.2 ± 0.47.

Take YHTRIYDL: the amyloid nucleation score came out at 0.576 ± 0.45.

IHLQIWAFFMLRIPPGRNKT yielded an amyloid nucleation score of -0.636 ± 0.76.

The substance SDCVTFATCWM came in with an amyloid nucleation score of 0.096 ± 0.49.

For NSLGRYSFRFVRCEGVWKTR, the amyloid nucleation score was -0.88 ± 0.76.

As for WSRMLFGECRSGKLRLPMPR, the amyloid nucleation score was found to be 3.73 ± 0.099.

Substance RPNDMHTT showed an amyloid nucleation score of -0.064 ± 0.26.

Take WCIKANSMSRNVYVEEMGER: the amyloid nucleation score is -0.143 ± 0.24.

For the substance SYDPGITSSWMVRIRRVRMC, the amyloid nucleation score was -0.001 ± 0.49.

Substance CWSPLGTFSLLALMGASKTL showed an amyloid nucleation score of 0.103 ± 0.42.

With TIILMGYLFWICRQSVR, the amyloid nucleation score is -0.449 ± 0.38.

On to LWFLYSAVTFTR, for which the amyloid nucleation score was -0.856 ± 0.76.

The substance FSPHHEPTSRG gave an amyloid nucleation score of 0.426 ± 0.45.

In the case of RSQTSWLKDLWQRSLTSDCS, the amyloid nucleation score turned out to be 4.62 ± 0.059.

Take GNGLVMLKTVHLWVLRDVLG: the amyloid nucleation score worked out at 0.839 ± 0.24.

PKFTMVPNNGMQVGIARNKW yielded an amyloid nucleation score of 0.43 ± 0.29.

Take VDRFFLEARCLELTSQ: the amyloid nucleation score was 0.34 ± 0.5.

SYVYMREKSIGTDSAVLRSM: the amyloid nucleation score entry was “inactive”.

For HCVMLHGGSPRHLNRRTDIC, the amyloid nucleation score was found to be 0.292 ± 0.27.

In turn, KWDHPKEVFCSVRTSGRGVE displayed an amyloid nucleation score of 2.04 ± 0.072.

As to SIFRWKREKAVGLYPLHQVA, the amyloid nucleation score was -0.094 ± 0.76.

Regarding SYGIAWTIMT, the amyloid nucleation score is -0.701 ± 0.45.

SDPLSFGFGQMWIGVHNEFY displayed an amyloid nucleation score of 2.2 ± 0.16.

The substance SSLFMTIWDSFSPI showed an amyloid nucleation score of -0.186 ± 0.45.

Substance FCVIPIKGQRSLHIPVQLFG had an amyloid nucleation score of -1.07 ± 0.76.

YLVFKYTRGMFLVLCTPIWV had an amyloid nucleation score of -1.17 ± 0.39.

KDTRVVYVPSFYLWNLDAVK displayed an amyloid nucleation score of -0.551 ± 0.61.

In turn, KHIFFLREVVNYFMRRTKGL showed an amyloid nucleation score of -0.507 ± 0.64.

DYAFRVYSGIPLKLSNS had an amyloid nucleation score of -0.373 ± 0.65.

Consider RLFANASGVDMEGTGYNRSD, for which the amyloid nucleation score was 0.359 ± 0.4.

As for RCFSRNFEECFENAYTWV, the amyloid nucleation score is -1.07 ± 0.33.

For SLVLVDFAYSWMSGSAFWFF, the amyloid nucleation score was -1.09 ± 1.1.

For the substance MGLPSIF, the amyloid nucleation score turned out to be 5.89 ± 0.092.

For AYKSYGKASSDWMWGLCSHH, the amyloid nucleation score is -0.108 ± 0.56.

Regarding TRSPEYNCRSVEGTVSDKDK, the amyloid nucleation score is -0.832 ± 0.49.

The substance VHIMNSLVGSIVLGSSRRLS showed an amyloid nucleation score of 5.77 ± 0.062.

HVVTRVSFESVFCLFTYF came in with an amyloid nucleation score of 3.83 ± 0.085.

HGYHSGTLIALYVDN: the amyloid nucleation score entry was “inactive”.

Turning to SSYRSEGSAYGMPYYPVSAS, the amyloid nucleation score stood at 1.06 ± 0.38.

On to LNFKWANCVFVDSNCQQ, for which the amyloid nucleation score was 3.13 ± 0.17.

Take IHLWICSISYNAVSIRFTSY: the amyloid nucleation score turned out to be 1.42 ± 0.097.

SSADMQRY had an amyloid nucleation score of -0.383 ± 0.48.

As to GHYKISKAFTVTST, the amyloid nucleation score came to 2.58 ± 0.095.

Turning to VYTVVYGYNWISCDHFSWDT, the amyloid nucleation score came out at 7.47 ± 0.08.

PLFTINRVVMPNINVETFAG: the amyloid nucleation score is -0.522 ± 0.39.

In the case of RSRAQQHSQHNTVDITPTRS, the amyloid nucleation score amounted to 0.194 ± 0.32.

Consider CKAIFFLLDPPTFIYRGSSC, for which the amyloid nucleation score was found to be 0.079 ± 0.57.

In the case of CNLWSDLGWYYQAMWKIRRD, the amyloid nucleation score result was “inactive”.

The substance RFDCLTVLLVFESYHFKTAG had an amyloid nucleation score of -0.392 ± 0.31.

On to FLVYYINFIAAKCRPKSNLR, for which the amyloid nucleation score entry is “inactive”.

YQLIGFTKVIRFHSVELIEP: the amyloid nucleation score entry is “inactive”.

LYSLWQKRGRRGSYVSPAGS displayed an amyloid nucleation score of 2.88 ± 0.13.

RIDILGVTRWN had an amyloid nucleation score of 0.633 ± 0.3.

For the substance RQYFNVLDCWGIGVFGHKG, the amyloid nucleation score is 1.34 ± 0.3.

ECERERYLLGTRT registered an amyloid nucleation score of 0.322 ± 0.25.

For the substance SQLLDSLQNGRGCYSM, the amyloid nucleation score entry is “inactive”.

For the substance IMWYFIINWHP, the amyloid nucleation score came out at 4.79 ± 0.074.

The substance NECRVDFE came in with an amyloid nucleation score of -0.668 ± 0.56.

In the case of TACSQVVGVIHIIVGRGRSR, the amyloid nucleation score came to 7.292 ± 0.045.

As to VKGVWWYRIMS, the amyloid nucleation score came out at 0.785 ± 0.51.

Regarding WVHGIESSRWRFGL, the amyloid nucleation score was -0.474 ± 1.1.

In turn, LDATNSKNVYRMPAWKGNMR yielded an amyloid nucleation score of 0.564 ± 0.32.

Substance FGFIYGTRVEGLSIVSRQSR came in with an amyloid nucleation score of 2.36 ± 0.14.

RFFADLTMDQFNIFGGLWQG had an amyloid nucleation score of 1.09 ± 0.3.

In turn, VSMIVGSDNVPVSFETDVSV had an amyloid nucleation score of 1.01 ± 0.39.

For KDKGKNDRAIAWVLWGICVL, the amyloid nucleation score was found to be 0.51 ± 0.51.

Take TRFILYLGCDE: the amyloid nucleation score is -1.25 ± 0.54.

In the case of ITSLCYNVREFFWGRYVSRV, the amyloid nucleation score entry is “inactive”.

With MTIGFNAIYHQFRVTRCLVT, the amyloid nucleation score is 0.545 ± 0.53.

IDDVEGPVAPFGIATVQDQP gave an amyloid nucleation score of 1.51 ± 0.46.

The substance YLRMDLVKWKWVGDGSQVC gave an amyloid nucleation score of 2.86 ± 0.08.

With SLARSTRFLYWSGNELVFIS, the amyloid nucleation score was 3.66 ± 0.082.

In the case of KLMYLKLK, the amyloid nucleation score was -0.038 ± 1.1.

For the substance GFEGMSMADRKKGEVRAIWG, the amyloid nucleation score worked out at 0.755 ± 0.31.

Turning to LSSKCYVA, the amyloid nucleation score was -0.874 ± 1.

For the substance HVKASGP, the amyloid nucleation score was 0.339 ± 0.35.

In turn, RLNIGLLSVGYR came in with an amyloid nucleation score of 1.76 ± 0.17.

On to RMMVGALAGFMV, for which the amyloid nucleation score stood at 0.578 ± 0.35.

Turning to YNKWLMASLPRIVGT, the amyloid nucleation score was -0.47 ± 1.1.
